# Test: label from the status in PepcDB records
row,Sequence,protein production
1,MYTCKNKERMLMYKTIIMPVDVFEMELSDKAIRHAEFLAQDDGVIHLLHVLPGSASLSLHRFAADVRRFEEHLQHEAEERLQTMVSHFTIDPSRIKQHVRFGSVRDEVNELAKELDADVVVIGSRNPSISTHLLGSNASSVIRHANLPVLVVR,failed
2,MYTNVHSANNYQANLSNRSYGFKELAVLYFPNIAPASASIRLKQWIKDDVELLGSLEETNYHLSNRILTPKQRDLITTTFGSPFLEHHHHHH,failed
3,MYVFIEPNDLKDYLITVYDERNRAIRKQTQVYCFYLMIVLFVALFFFFPCLTIRDLVSYKLPLIFAYLYLIIRSLVAKKMEALGKITTNSQKPPFDTSQVLC,failed
4,MYVTTGTNDILLTINDYVNKETASYQLTDISNNTLISEIIEKIKVLKNYTYSSTDLVLYFARVECKLSEKLSTYNKSNRKTIKLELYLSKLITINVRTLQSCGTGTSRCIPFWSFCFRQNIKIKIIDTCEVRVLKQKIYNLTDESTSIPVENIVLLYKGAPLNNFLTLKESELIDNCRIDYFVPLCYIYKKKKEESDEDEDENEEKLKEHTKSEDKKVDTQQNENVKSENVNNENVKNENVNNENVKNENVNNENVNNENVNIENVKNDNNDNAKKC,failed
5,MYYKQLDSLVFTDGESIAKARLASMTDMWFSSDLHLGHKFVASMRGFDDPDEHDEVILSNFENTIGPDDVLWILGDLSSGAHRAEERALGLIAERLGGVVKHLVPGNHDSCHPMYRHAYKRQRRFLEVFDSVQAFQRMKWDDEDVYLSHFPRPGQDHPGMESRFDDLRLRVPLLIHGHLHSQFPMTGPGQVDVGVEAWGLKPAPRELVQLKLWESLSEKILEHHHHHH,failed
6,MYYVIFAQDIPNTLEKRLAVREQHLARLKQLQAENRLLTAGPNPAIDDENPSEAGFTGSTVIAQFENLQAAKDWAAQDPYVEAGVYADVIVKPFKKVF,not failed
7,NATTLPEALKLMQYIGDAIGTIRDPQELFRTVTDKLRLLFAFDSAVIITIDRERREASVFFEMLRFELPEQLRHQTRSIAGTWLEGHLDDRTVTVASIARDIPSFGADGAPLLWTLHELGMRQIVLSPLRSGGRVIGFLSFVSAEEKLWSDGDKSLLSGVSSSIAIAVSNALAYEELRQREAETSMQLAINNALFTI,not failed
8,NDQDAIQEKFYPPRFIQVPENMSIDEGRFCRMDFKVSGLPAPDVSWYLNGRTVQSDDLHKMIVSEKGLHSLIFEVVRASDAGAYACVAKNRAGEATFTVQLDVLAKEHKRAPMFIYKPQSKKVLEGDSVKLECQISAIPPPKLFWKRNNEMVQFNTDRISLYQDNTGRVTLLIKDVNKKDAGWYTVSAVNEAGVTTCNTRLDVTARPNQTLPAPKQLRVRPTFSKYLALNGKGLNVKQAFNPEGEFQRLAAQSGLYESEEL,failed
9,NGADVQVSNIDYRLSRKELQQLLQEAFARHGKVKSVELSPHTDYQLKAVVQMENLQDAIGAVNSLHRYKIGSKKILVSLATGA,not failed
10,NGDPQWLVQAARTAVLRTYEYGRALLKGLFTDSPFNIDIFDTQLRFVGLNIAERRAGVFQGTEYSGHTMREMAPPGLLDVDALEARQRRVLETGKALIDTEVVGHPVANSPREYVWSESILPLRDPSGRVIALGHVVSDV,failed
11,NGNPIPMGYSQAVENNVQITNFALFSAAAIGVELCLFDEQNQETRLPMVRTENVWHLAVTGVKTGTEYAFRIHGEFANPQKLILDPYAKAVNGKPDLSSEESRSWFLLSDNRDNAHLAPRAVVIS,failed
12,NGQSDVKHIGILQYVEHPSLTATRKGFIKELAKEGYKDGKNIKIEYKNAQGDQSNIQSISEKLIKDNKLVLGIATPAAQSLTTVSTETPILFTAVTDPVSAELVKSMKKPEGLATGTSDMSPIKKQVSLLRKVMPKVKRVGIMYTTSERNSEVQVKQAKKIFQEAGIKTSVKGISSTNDVQDTAKSLMSKTEVIFVPTDNIIASSVTLLGNLSKELKVPVVGGSADMVPSGLLFSYGADYEALGRQTARQAVKILKGKDVAKVPSEYPQNLKVVVNEDMAKELGIDVSSIK,not failed
13,NIILASRSLDKCYAIKESMLKKGLGEIGVEQVDADDTQALVALIQKYKPKVVINVALPYQDLTIMQACLETKTHYIDTANYEHPDLAKFEYKEQWAFDRAYKEVGILGVLGAGFDPGVTNAYVAHAQKHHFDTIHTLDILDCNAGDHKRPFATNFNPEINL,failed
14,NNQIGFCGVRKNINGNLYLLVYGMPAAINIDPIEKKPILHMYPNSLIYSISTVGCSFACQYCQNYDISQRRNIEGFDYSPEEIVNSAIEDGCRGIAYTYNEPSIFMEFAHDVGILARKRGLINIFVTNGYETPEAVEYSKDFLDAATVDFKGNASNDFYRKYISVPSADPIFDTIKLMKESGIHVEITDLVVPRVGDKLSDARSMLERLISILGYEFPISFLRFHPDYKMMDLPPTPLETLKAHYNLAVSMGLKYVYIGNVPGYYEDTYCPNCHSLLIKRHGFNSSVV,failed
15,NNTPIGTLRIGCSSTMAQNVLARITAKMLKEYPGLSVNLVTGIPAPDLIADGLDVVIRVGALQDSSLFSRRLGSMPMVLCAAKSYLAQAGNPEKPADLAGHAWLEYSVRPDNEFVIIAPEGISTRLTPQGRFVTNDPMTL,failed
16,NPQIREEVALDTQTGANPSAEELADGDIQAVAQAANERTGALFVVITDGLGIRLSHPDEERLGEQVSTSFEAAMRGEETMAWETGTLGASARAKVPIFAPDSSVPVGEVSVGFERDSVYSRLPMFLAA,failed
17,NQQTPTFYVHGFQGSAKSTNTLIAHAEKTAHAHKVLVATVSTSGQVTLTGKWRGRVRNPIIQVVFKNNLAQYDQQSAWLAKVITTVQQQHAFKHYNIVAHSAGCVASVNMLMTQQTTTFPKINKLVTIAGPFDGVVGEDDVANQNSFLTSGQPKYLHAAYELLAAKRNNFPKNVQLLNIVGTLNDGSHSDSLVTNVSARSIKYLLRGRDVDYTEKDFYGAHAQHSQLHENAKVALAVDRFLWHR,failed
18,NRCTFACVFCQNYDIVYEDDYIVDARELAYIIDVRRRQGSKNVNFVGGNPDQHAHTIAEILLYVESNVPVVWNSNMYHSEELAEVIEDFVDVWLGDFKYGNDECARKYSKVANYWKVVTRNFLRAKENG,failed

row,Sequence,protein production
1,NRLLSKYDPQKEAELRTWIEGLTGLSIGPDFQKGLKDGTILCTLMNKLQPGSVPKINRSMQNWHQLENLSNFIKAMVSYGMNPVDLFEANDLFESGNMTQVQVSLLALAGKAKTKGLQSGVDIGVKYSEKQER,not failed
2,NSTWSGESKTLVLSNLSYSATEETLQEVFEKATFIKVPQNQNGKSKGYAFIEFASFEDAKEALNSCNKREIEGRAIRLELQGPRGSPN,not failed
3,NTDYYGLDYALSFNQVEIEEKRIVIAGSGGIARTVIRYMLDHGAHRVDVLTRNAQNARRNLDIPGIGLHENIDEDYDIYVNCTPLGTLGDGDPFSTVDFRSGRTGIDLVYNPPDTPFLKRMRNAGGRTVSGLDVFIGQGLRTLELVFGIRPDSIFREYAVEALNEIR,failed
4,NTITVSELLELIKKEDVIIVDTRSPREFKEETLPGAINIPLFLDDEHALIGKTYKQESREKAIEIATDIVEKSLKRILNEAKKLDRDKLIVVFCARGGMRSQTMALILQLLGFKVKRLIGGFKAFKHA,not failed
5,NVAYPLGEGLLSFAESLESQKIHFTTEVITSRIEPANRYVAEKLRITPGQDILYLERLRSIGDEKAMLIENRINIELCPGIVEIDFNQHNLFPTIESLSKRKIRYSESRYAARLIGNERGHFLDISEDAPVLHLEQLVFFSRELPVEFGNVWLKGNKYYLGTVLQRRELS,not failed
6,NVVLRILAWLLAVGLVVLPVVAVLNGWVGAERWPLAKLRVSGDFKRVSAEELRAVVLPYVRSGFFAVRLPQVQDAVERLPWVERAHVSKRWPDVLEVSVVEHQPFARWGSDRMLSEQGRLFPVPGGLKNLKLPQLGGPDMKVRDVVALYKASSALFASTGLDVSWLQMDARGSWSLGLSNGLQIFVGRDDARARLERFARVLPQLLDPQRPVVRADLRYTN,failed
7,NVYDLANELERAVRALPEYQAVLTAKSAIESDADAQVLWQDFLATQSKVQEMMQSGQMPSQEEQDEMSKLGEKIESNDLLKVYFDQQQRLSVYMSDIEKIVFAPMQDL,not failed
8,PASGVRPAEAADLAAVAAYDSACSPADRPRFLEHWLAGPGHRTFVRLVDGRLTGYGVVRPALDSLRVGPLFADSAEDARALFTALTADAGEIAMDIPETNTAAVALAREAGLTPSFETARMYTGPVRPFAADRVYGITSLELG,failed
9,PDHKMSDVDTRHVAGLMRINHTGEVCAQALYQGQALTAKLPKVRKAMEHAAEEEIDHLVWCEQRIHQLGSHTSVLNPLFYGLSFGIGAVAGVISDRVSLGFVAATEDQVCKHLGEHLEQLPIEDGKSRAILEQMLSDEEHHAE,failed
10,PDMDPRCPARADPRKLHDAIARFGVNHLFGSPALLRVLAEYGKPLPTLRCVTSAGAPVPPYVVAQIRALLSDEAQFLTPYGATECLPIAVIESRE,failed
11,PDVDGMITLKVDNLTYRTSPDSLRRVFEKYGRVGDVYIPREPHTKAPRGFAFVRFHDRRDAQDAEAAMDGAELDGRELRVQVARYGRRDL,not failed
12,PELKCPVIGCDGQGHISGKYTSHRTASGCPLAAKRQKENPLNGASLSWKLNKQELPHCPLPGCNGLGHVNNVFVTHRSLSGCPLNAQVIKKGKVS,not failed
13,PELPTCLTRRLADYATEKPLVRLFFQGEEATVPFISQTSRELNMDINILLANIDRFDGVTCGVLVVELTANPLLLEAFINRCEQAGITVEVLGYVLPDGL,not failed
14,PETYGRLVEPTTLKIERLLPGPIERVWAYLTQSDLRRRWLASGEMRLAPDAPFELVWRNDELSDPPGHRPEGFSEEEKMASRIITVVPPHHLVFSWGESGEVSIELQALGKDVLLTLIHRRLVGRKTKLDVSAGWHVHLDILAARLQEKEPAPFWDTWLALKEEYEPR,failed
15,PEVGSSEHKLKIRNIKLSDYDDIFEIMESVYADIGGPWTKKELRSHLNHFPEGQICIEDNGKVIAAAFSLIVNYSNYGDKHTYQQITGDGLLTNHDPEGDTLYGIDIFVHPEFRGLRLGRRLYDARKELCEKLNLRAIIVGGRIPGYKNFAKKLTPRQYIEEVKKKEIFDPVLTFQLANDFHLRKIIQGYLPDDRDSKAYAALLEWKNALYEIEE,failed
16,PGAAPGLFALESAIDEMALASGMDPLAFRKLNLSDKDQSVGLPWSSNHLPEAIDKAAERFGWQARKAAVGSMREGDEIIGYGMGACNWEAHQVPTDARVVLRSDGTALAQCGLQDIGTGTYTIVAQTVSELTGIPIERVEVELGSSSFPPGPVSGGSWVTASVMPAIAGATREALQKLRQYAISKDAVFAGQDPESIKVENGQLVMGEQRASFVDVLKGQRLSRAEGNFQSGMPEAGKYSFRSFGVHFVEVRWDPGISSLRVSRVVSAIDVGKVINPLAARNQVEGAIVMGIGMALFEAGEYDPRSGMPVNNNYAEYVVPVHADQPDIDVMLLDYPDYNLGEFGARGIGEIGVTGLAAAVANAVYHATGKRVRSLPITKEKLMAGL,failed
17,PGAPSTVRISKNVDGIHLSWEPPTSPSGNILEYSAYLAIRTAQMQDNPSQLVFMRIYCGLKTSCTVTAGQLANAHIDYTSRPAIVFRISAKNEKGYGPATQIRWLQGNSK,not failed
